Laboratory results taken from the supplement of paper PMC11780869.

System: Bacillus subtilis
Assay: cleaved RNA product abundance (RNA/gDNA barcode ratio) relative to median wild-type variant (ratio to wild type); higher = more accumulation of the downstream cleavage product
How it was run: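 Cleaved product abundance is expressed as the RNA:gDNA barcode ratio per construct, scaled to the median construct carrying the unmutated site. The constructs were barcoded, mutagenized RNase Y cleavage-site windows in truncated aprE or tetM reporter mRNAs integrated into the B. subtilis chromosome. Cultures grew in LB at 37°C from OD600 0.0003 to 0.3 before cleaved RNA was gel-selected and barcode-sequenced.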

[1] = experiment (reporter, strain, medium): exp 2b: truncated aprE reporter, strain BJT200, cleavage site: cggR-gapA (positions -7 to +36 mutated)
[2] = experiment (reporter, strain, medium): exp 4a: truncated aprE reporter, strain BJT201 with 2% xylose (RNase J1 expressed), cleavage site: cggR-gapA (positions -7 to +36 mutated)
[3] = experiment (reporter, strain, medium): exp 8a: truncated aprE reporter, strain BJT201 with 2% xylose (RNase J1 expressed), cleavage site: glnRA (positions -5 to +31 mutated)

Sequence | cleaved RNA product abundance [1] | cleaved RNA product abundance [2] | cleaved RNA product abundance [3] | other results
ACAGACGAAGGAGCCGCAAAGATTTTATTAAGGGATGAATAATCCCTCAATATAAATATCTCTCACTTATTTAAA | 1.07 | 0.974 | – | –
ACAGACGAAGGAGCCGCAAAGAAGTTCTTAAGGGATGAATAATCCCTAAATATAAATATCTCTCACTTATTTAAA | 0.236 | 0.193 | – | –
ACAGACGAAGGAGCCGCAAATAAGTTATAAAGGGATGAATAATCCCTCAATATAAATATCTCTCACTTATTTAAA | 0.337 | 0.421 | – | –
CGACATGTCCCGCTTCTTTCATTAATCCGACAGCAACTGTTTTGCTATATACATTTACCTTTTAAGAGGAGGAAT | – | – | 0.335 | –
ACAGACGAAGGAGCCGCAAAGAATTTATTAAGGGATGAATAATGCATCAATATAAATATCTCTCACTTATTTAAA | – | 0.2 | – | –
ACAGACGAAGGAGCCGCAAAGAAGTTATTAAGGCATGAATTATCCCTCAATATAAATATCTCTCACTTATTTAAA | 0.0689 | 0.132 | – | –
ACAGACGAAGGAGCCGCCAAGAAGTTATTAAGGGATGAATAATCCCTTAATATAAATATCTCTCACTTATTTAAA | 0.21 | 0.305 | – | –
ACAGACGAAGGAGCCGCTAAGAAGTTATTAAGGGATGACTAATCCCTCAATATAAATATCTCTCACTTATTTAAA | – | 0.542 | – | –
CGACATGTCCCGCTTCTTTCATTAATCCGTTACCAATTGTTTTGCTATATACATTTACCTTTTAAGAGGAGGAAT | – | – | 0.16 | –
ACAGACGAAGGAGCCGCAAAGAACTTATTAAGGGATGAATAATCCCTCAAAATAAATATCTCTCACTTATTTAAA | – | 0.208 | – | –
CGACATGTCCCGCTTCTTTCATTAATCCGTTAGCAACTGTTTTGCTACATACAATTACCTTTTAAGAGGAGGAAT | – | – | 0.348 | –
ACAGACGAAGGAGCCGCAAAGAAGTTATTAAGGCGTGAATAATCCCTCAATATAAATATCTCTCACTTATTTAAA | 0.097 | 0.116 | – | –
CGACATGTCCCGCTTCTTTCATTAATCCGTTAGCAAGTGTTTTGCTTTATACATTTACCTTTTAAGAGGAGGAAT | – | – | 0.474 | –
ACAGACGAAGGAGCCGCAAAGAAGTTATTAAGGGATCAATAAACCCTCAATATAAATATCTCTCACTTATTTAAA | 0.518 | 0.429 | – | –
ACAGACGAAGGAGCCGCAAAGAAATTATTAAGGGATGAATAATCCCTCAATAAAAATATCTCTCACTTATTTAAA | 0.178 | – | – | –
ACAGACGAAGGAGCCGCAAAGAAGTTATTAAGGCATGAATAATCCCACAATATAAATATCTCTCACTTATTTAAA | 0.0968 | 0.0597 | – | –
ACAGACGAAGGAGCCGCAAAGAAGTTACTAAGGGATGAATAAACCCTCAATATAAATATCTCTCACTTATTTAAA | – | 0.14 | – | –
CGACATGTCCCGCTTCTTTCATTAATCCGTTATCAACTGTTTTGCTATTTACATTTACCTTTTAAGAGGAGGAAT | – | – | 0.111 | –
ACAGACGAAGGAGCCGCAAAGAAGCTATTAAGGGATGAATACTCCCTCAATATAAATATCTCTCACTTATTTAAA | – | 0.458 | – | –
ACAGACGAAGGAGCCGCAAAGAAGTTATTAACGGATGAATAATCCCTCAATATTAATATCTCTCACTTATTTAAA | 0.0877 | 0.0699 | – | –

Sequence | cleaved RNA product abundance [1] | cleaved RNA product abundance [2] | cleaved RNA product abundance [3] | other results
CGACATGTCCCGCTTCTTTCATTATTCGGTTAGCAACTGTTTTGCTATATACATTTACCTTTTAAGAGGAGGAAT | – | – | 1.73 | –
ACAGACGAAGGAGCCGCAAAGAATTTATGAAGGGATGAATAATCCCTCAATATAAATATCTCTCACTTATTTAAA | – | 0.325 | – | –
CGACATGTCCCGCTTCTTTCATTAATCCGTTAACAAATGTTTTGCTATATACATTTACCTTTTAAGAGGAGGAAT | – | – | 0.287 | –
CGACATGTCCCGCTTCTTTCATTAATCCATTAGCAACTGTTTTGCTATATATATTTACCTTTTAAGAGGAGGAAT | – | – | 0.973 | –
ACAGACGAAGGAGCCGCAAAGACGTCATTAAGGGATGAATAATCCCTCAATATAAATATCTCTCACTTATTTAAA | – | 0.449 | – | –
ACAGACGAAGGAGCCGCAAAGAAGTTATTATGGGGTGAATAATCCCTCAATATAAATATCTCTCACTTATTTAAA | – | 0.285 | – | –
ACAGACGAAGGAGCCGCAAAAAACTTATTAAGGGATGAATAATCCCTCAATATAAATATCTCTCACTTATTTAAA | – | 0.479 | – | –
ACAGACGAAGGAGCCGCAAAGACGTTATTAATGGATGAATAATCCCTCAATATAAATATCTCTCACTTATTTAAA | 0.115 | 0.115 | – | –
ACAGACGAAGGAGCCGCAAAGAAGTTATTAACGGATGAATAATCCCTCAATATAAAAATCTCTCACTTATTTAAA | 0.156 | 0.116 | – | –
ACAGACGAAGGAGCCGCAAAGAAGTTATTAAGGGATGAAAAATCCCTCAATAGAAATATCTCTCACTTATTTAAA | – | 0.192 | – | –
CGACATGTCCCGCTTCTTTCATTAATCCATTAACAACTGTTTTGCTATATACATTTACCTTTTAAGAGGAGGAAT | – | – | 0.198 | –
CGACATGTCCCGCTTCTTTCATTAATCCGTTAGAAACTGTTTTGCTATATTCATTTACCTTTTAAGAGGAGGAAT | – | – | 0.268 | –
CGACATGTCCCGCTTCTTTCATTAATCCGTTGGCAACTATTTTGCTATATACATTTACCTTTTAAGAGGAGGAAT | – | – | 0.866 | –
ACAGACGAAGGAGCCGCAAAGAAGTGATTAAGAGATGAATAATCCCTCAATATAAATATCTCTCACTTATTTAAA | 0.0989 | 0.133 | – | –
ACAGACGAAGGAGCCGCAAAGAAGTTATTTAGGGATGAATAACCCCTCAATATAAATATCTCTCACTTATTTAAA | – | 0.288 | – | –
ACAGACGAAGGAGCCGCAAAGGAGTTATTAAGGGATGAATAATCCCTCACTATAAATATCTCTCACTTATTTAAA | – | 0.302 | – | –
ACAGACGAAGGAGCCGCAAAGAAGTACTTAAGGGATGAATAATCCCTCAATATAAATATCTCTCACTTATTTAAA | – | 0.243 | – | –
ACAGACGAAGGAGCCGCAAAGAAGTTATTTAGGAATGAATAATCCCTCAATATAAATATCTCTCACTTATTTAAA | – | 0.127 | – | –
CGACATGTCCCGCTTCTTTCATTATTCCGTTATCAACTGTTTTGCTATATACATTTACCTTTTAAGAGGAGGAAT | – | – | 0.265 | –
ACAGACGAAGGAGCCGCAAAGAAGTTATTAAGAGTTGAATAATCCCTCAATATAAATATCTCTCACTTATTTAAA | – | 0.0897 | – | –

Sequence | cleaved RNA product abundance [1] | cleaved RNA product abundance [2] | cleaved RNA product abundance [3] | other results
CGACATGTCCCGCTTCTTTCATTAGTCCGTTAGCAACTGTTTTCCTATATACATTTACCTTTTAAGAGGAGGAAT | – | – | 0.352 | –
ACAGACGAAGGAGCCGCAAAGAAGTTATTAAAGGATGAATAATACCTCAATATAAATATCTCTCACTTATTTAAA | 0.0942 | 0.121 | – | cleaved RNA product abundance (experiment (reporter, strain, medium): exp 6: tetM reporter, strain 168, cleavage site: cggR-gapA (positions -7 to +36 mutated)): 0.108
CGACATGTCCCGCTTCTTTCATTAATCCGTTAGCAACAATTTTGCTATATACATTTACCTTTTAAGAGGAGGAAT | – | – | 1.04 | –
CGACATGTCCCGCTTCTTTCATTAGTCCGTTAGCAACTGTTTTGCTATATACTTTTACCTTTTAAGAGGAGGAAT | – | – | 0.341 | –
ACAGACGAAGGAGCCGCAAAAAAGTTATTAAGGGATGAATAATCCCGCAATATAAATATCTCTCACTTATTTAAA | 0.141 | 0.231 | – | –
ACAGACGAAGGAGCCGCAAAGAAGTTATTAAGGGATGAATAATAGCTCAATATAAATATCTCTCACTTATTTAAA | – | 0.13 | – | –
CGACATGTCCCGCTTCTTTCATTAATCCGTTAGCAACTGTTTTGCTAGATACATTTACTTTTTAAGAGGAGGAAT | – | – | 0.636 | –
ACAGACGAAGGAGCCGCAAAGAAGTTATTAAGTGATGAATAATCCCTCAATATAATTATCTCTCACTTATTTAAA | – | 0.0685 | – | –
CGACATGTCCCGCTTCTTTCATTAATCTATTAGCAACTGTTTTGCTATTTACATTTACCTTTTAAGAGGAGGAAT | – | – | 0.311 | –
ACAGACGAAGGAGCCGCAAAGAAGTTATTAAGGGATTAATAATCCCTCACTATAAATATCTCTCACTTATTTAAA | 0.233 | 0.26 | – | –
ACAGACGAAGGAGCCGCAAAGAAGTTATTAAGGGATGACTAATCCCTCAATATATATATCTCTCACTTATTTAAA | 0.293 | – | – | –
ACAGACGAAGGAGCCGCAAAGAAGTTATTAAGGGATAAATAATCCCTCAATATAATTATCTCTCACTTATTTAAA | 0.507 | 0.532 | – | –
CGACATGTCCCGCTTCTTTCATTAATCCGTTAGCAACTGTTTTGCTATATACATTTACATTTTAAGAGGAGGAAT | – | – | 1.39 | –
CGACATGTCCCGCTTCTTTCATTAATCCGTTAGCAACTGTTTTGCTTTATAGATTTACCTTTTAAGAGGAGGAAT | – | – | 0.649 | –
CGACATGTCCCGCTTCTTTCATTAATCCGTTTGCAACTGTTTTGCTATATACAATTACCTTTTAAGAGGAGGAAT | – | – | 0.478 | –
CGACATGTCCCGCTTCTTTCATTATTCCGTTAGCAATTGTTATGGTATATACAATTATCTTTTAAGAGGAGGAAT | – | – | 0.256 | –
ACAGACGAAGGAGCCGCAAAGAAGTTATTAAGGGATGAATAAACTCTCAATATAAATATCTCTCACTTATTTAAA | – | 0.14 | – | –
CGACATGTCCCGCTTCTTTCATTAATCTGTTAACAACTGTTTTGCTATATACATTTACCTTTTAAGAGGAGGAAT | – | – | 0.238 | –
ACAGACGAAGGAGCCGCAATGAAGTTATTAAGGGATTAATAATCCCTCAATATAAATATCTCTCACTTATTTAAA | 0.989 | 1.06 | – | –
CGACATGTCCCGCTTCTTTCATTATTCCGTTAGCAACTGTTTTGCTACATACATTTACCTTTTAAGAGGAGGAAT | – | – | 0.626 | –
